From patent publication US20140255414A1 (PROBIODRUG, published 2014)
Square brackets hold non-standard residues; d marks the D form. pGlu = O=C1CC[C@@H](C(=O)O)N1; PEG = not defined here

Assays:
Aβ(pE11-30) peptide = target: T1, Aβ(pE11-30) peptide (N-terminal pyroglutamate (Aβ position 11)); assay: direct ELISA: AβpE(11-30) coated at 0-500 ng/ml, 1 µg/ml biotinylated antibody pre-incubated with streptavidin-HRP, absorption 450/540 nm
T1 construct: Synthesized peptide; Amine-coupled to a CM5 chip for SPR, or adsorbed to the microplate for the direct ELISA
T1 peptide: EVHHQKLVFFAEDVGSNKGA
Method: AβpE(11-30) peptide with different concentrations was coated over night at 4° C. and then blocked with ELISA-Blocker (−T) 2 h at RT. Anti Aβ11(pE) antibody (clone 13) biotinylated was pre-incubated with streptavidin-HRP conjugate 10 min at RT and diluted in ELISA-Blocker (+T) were performed. Addition of 1 μg/ml antibody (clone 13). Wash cycles in-between incubations with 6×300 μl/well TBS-T buffer (except after peptide coating). TMB/H₂O₂ were added, incubated 30 min at RT (dark) and enzyme reaction was stopped with 1 M H₂SO₄. Absorption was measured at 450/540 nm at TECAN Sunrise.

Aβ(pE11-18)-PEG peptide = target: T2, Aβ(pE11-18)-PEG peptide (reading uncertain); assay: ITC at 20 °C, peptide titrated into biotinylated antibody
T2 construct: The PEG attachment is not described further
T2 peptide: [pGlu]VHHQKLV-{PEG}
Method: 1.3.4.1 Determination of Thermodynamic Parameters With ITC, the thermodynamic parameters of the binding of anti Aβ11(pE) antibody from clone 13 at antigen Aβ11(pE) was determined. For the ITC experiment, the peptide Aβ(pE11-18)-PEG was used because the hydrophilic PEG group imparts hydrophilic properties and so it was possible to dissolve the peptide directly in ITC buffer. Former experiments with Aβ(pE11-20) could only be performed with 1-2% DMSO, due to the strong hydrophobicity of the peptide it was necessary to dissolve it with DMSO which could have an effect on the ITC binding properties. At first the antibody was dialyzed against ITC buffer (150 mM NaCl, 25 mM Na₂HPO₄, 25 mM KH₂PO₄, 1 mM EDTA, pH=7.1) over night at 4° C. The lyophilised peptide, stored at −20° C., was dissolved in identical ITC buffer pH=7.1 which was used for antibody dialysis. Both antibody and antigen must be in identical solutions, otherwise large heats of dilution will mask the desired observation. Before the ITC experiment, the concentration of antibody was determined by UV/VIS spectroscopy (see section 1.3.1). At first the antibody with e.g. 5.13 μM (see Table 4) was added into the sample cell and the reference cell was filled with distilled water. Then the antigen was injected into the sample cell with e.g. 81.78 μM (see Table 4). The antigen should be generally in twofold excess to the antibody, bearing in mind that an antibody has two binding sites the antigen was in the cell at least in fourfold excess to the antibody. The 30 injections (1×2 μl and 29×10 μl) were made with a 4-min interval between subsequent injections. The measurement of heat of reaction was performed at 20° C. Furthermore the heat of reaction was determined which was only generated by dilution of the antigen through the titration into ITC buffer (pH=7.1). Therefore the antigen was injected into the sample cell filled with ITC buffer. The heat of reaction which was generated during the titration of the antigen to the antibody was corrected about this value. The analysis of raw data and the determination of the association constant (KA), reaction stoichiometry (n), binding enthalpy (ΔH) and entropy (ΔS) was performed with Origin Software of MicroCal.

binding result (Aβ(pE11-30) peptide): binds
-TΔS (Aβ(pE11-18)-PEG peptide): -0.98 kcal/mol
Ka (Aβ(pE11-18)-PEG peptide): 8e+06 M⁻¹
Kd (Aβ(pE11-18)-PEG peptide): 125 nM
Stoichiometry (N) (Aβ(pE11-18)-PEG peptide): 1.66
B1: biotinylated monoclonal mouse anti Aβ11(pE) antibody (clone 13) (antibody, V domains shown)
VH: QVQLQQPGTELVKPGASVKLSCKASGFTFTSYWMHWVRQRPGQGLEWIGEINPSNGRTNYNEKFKSKATLTVDKSSSTAYMQLSSLTSEDSEVYYCARGDLAWDWSAYWGQGTLVTVSA
VL: DIVMSQSPSSLAVSAGEKVTMSCKSSQSLFYSRTRKNYLAWYQQKPGQSPKLLIYWASTRESGVPDRFTGSGSGTDFTLTISSVQAEDLAVYYCKQSYNLWSFGGGTKLEIKR
modifications: about 2 biotin molecules (NHS-PEO4-Biotin) coupled per antibody; sites not stated
notes: Mouse IgG; also called anti Aβ11(pE)-biotin antibody (clone 13); mAb mouse anti Aβ11(pE)-Biotin
